From PMC10897159, “Structural insights into the activation mechanism of antimicrobial GBP1” (The EMBO Journal, 2024) come the findings set out here.

Substitutions are numbered along the chain they refer to. Numbers in names are those of the source.

Data set [1] deals with the molecule itself. The data set is described as follows: cross-linking; BS3 at 20-times molar excess, 20 µM protein, with 200 µM GDP, 300 µM AlCl3, 10 mM NaF (GDP•AlFx); 50 mM HEPES, 150 mM NaCl, 5 mM MgCl2; SDS-PAGE.
Data set [2] deals with the molecule itself. As to the kind of experiment: SEC; analytical SEC (Superdex 200 5/150), 20 µM protein with 200 µM GDP, 300 µM AlCl3, 10 mM NaF (GDP•AlFx); 50 mM Tris-HCl pH 7.9, 150 mM NaCl, 5 mM MgCl2.

B1: GBP1 D199A, non-farnesylated (natural protein, human, UniProt P32455 1-592, looked up)
chain: MASEIHMTGPMCLIENTNGRLMANPEALKILSAITQPMVVVAIVGLYRTGKSYLMNKLAGKKKGFSLGSTVQSHTKGIWMWCVPHPKKPGHILVLLDTEGLGDVEKGDNQNDSWIFALAVLLSSTFVYNSIGTINQQAMDQLYYVTELTHRIRSKSSPDENENEVEDSADFVSFFPDFVWTLRDFSLDLEADGQPLTPAEYLTYSLKLKKGTSQKDETFNLPRLCIRKFFPKKKCFVFDRPVHRRKLAQLEKLQDEELDPEFVQQVADFCSYIFSNSKTKTLSGGIQVNGPRLESLVLTYVNAISSGDLPCMENAVLALAQIENSAAVQKAIAHYEQQMGQKVQLPTETLQELLDLHRDSEREAIEVFIRSSFKDVDHLFQKELAAQLEKKRDDFCKQNQEASSDRCSALLQVIFSPLEEEVKAGIYSKPGGYRLFVQKLQDLKKKYYEEPRKGIQAEEILQTYLKSKESMTDAILQTDQTLTEKEKEIEVERVKAESAQASAKMLQEMQRKNEQMMEQKERSYQEHLKQLTEKMENDRVQLLKEQERTLALKLQEQEQLLKEGFQKESRIMKNEIQDLQTKMRRRKACTIS
notes: GBP1, human, full-length construct with D199A in helix α4; also called pivot point mutant; source: E. coli, pQE-80L, purified (Ni Sepharose HP, Superdex 200)
With B1, the binding result in data set [1] is reported as “binds”.

B2: GBP1 D199K, non-farnesylated (natural protein, human, UniProt P32455 1-592, looked up)
chain: B1 chain with A199K
notes: GBP1, human, full-length construct with D199K in helix α4; also called pivot point mutant; source: E. coli, pQE-80L, purified (Ni Sepharose HP, Superdex 200)
As to B2, the binding result in data set [1] was “binds”.

B3: isolated LG domain of GBP1 Δ207-213 (domain or fragment, human, UniProt P32455 1-317, looked up)
chain: MASEIHMTGPMCLIENTNGRLMANPEALKILSAITQPMVVVAIVGLYRTGKSYLMNKLAGKKKGFSLGSTVQSHTKGIWMWCVPHPKKPGHILVLLDTEGLGDVEKGDNQNDSWIFALAVLLSSTFVYNSIGTINQQAMDQLYYVTELTHRIRSKSSPDENENEVEDSADFVSFFPDFVWTLRDFSLDLEADGQPLTPDEYLTYSLGGGSGGGSQKDETFNLPRLCIRKFFPKKKCFVFDRPVHRRKLAQLEKLQDEELDPEFVQQVADFCSYIFSNSKTKTLSGGIQVNGPRLESLVLTYVNAISSGDLPCMENAVL
notes: LG domain of GBP1, human; stop codon in place of A318; also called α4’ variant LG domain construct; source: E. coli, pQE-80L, purified (Ni Sepharose HP, Superdex 200)
A word on the stoichiometry N: it is a count of units in the complex or per binding partner. Regarding B3, the “stoichiometry N” value in data set [2] came to 2.

B4: GBP1 Δ207-213, farnesylated (natural protein, human, UniProt P32455 1-592, looked up)
chain: MASEIHMTGPMCLIENTNGRLMANPEALKILSAITQPMVVVAIVGLYRTGKSYLMNKLAGKKKGFSLGSTVQSHTKGIWMWCVPHPKKPGHILVLLDTEGLGDVEKGDNQNDSWIFALAVLLSSTFVYNSIGTINQQAMDQLYYVTELTHRIRSKSSPDENENEVEDSADFVSFFPDFVWTLRDFSLDLEADGQPLTPDEYLTYSLGGGSGGGSQKDETFNLPRLCIRKFFPKKKCFVFDRPVHRRKLAQLEKLQDEELDPEFVQQVADFCSYIFSNSKTKTLSGGIQVNGPRLESLVLTYVNAISSGDLPCMENAVLALAQIENSAAVQKAIAHYEQQMGQKVQLPTETLQELLDLHRDSEREAIEVFIRSSFKDVDHLFQKELAAQLEKKRDDFCKQNQEASSDRCSALLQVIFSPLEEEVKAGIYSKPGGYRLFVQKLQDLKKKYYEEPRKGIQAEEILQTYLKSKESMTDAILQTDQTLTEKEKEIEVERVKAESAQASAKMLQEMQRKNEQMMEQKERSYQEHLKQLTEKMENDRVQLLKEQERTLALKLQEQEQLLKEGFQKESRIMKNEIQDLQTKMRRRKACTIS
modifications: farnesyl moiety at the C-terminal CaaX box motif
notes: GBP1, human, full-length construct; also called helix α4’ variant
For B4, the binding result in data set [1] is “binds”.

B5: GBP1 Δ207-216, farnesylated (natural protein, human, UniProt P32455 1-592, looked up)
chain: MASEIHMTGPMCLIENTNGRLMANPEALKILSAITQPMVVVAIVGLYRTGKSYLMNKLAGKKKGFSLGSTVQSHTKGIWMWCVPHPKKPGHILVLLDTEGLGDVEKGDNQNDSWIFALAVLLSSTFVYNSIGTINQQAMDQLYYVTELTHRIRSKSSPDENENEVEDSADFVSFFPDFVWTLRDFSLDLEADGQPLTPDEYLTYSLGGGSETFNLPRLCIRKFFPKKKCFVFDRPVHRRKLAQLEKLQDEELDPEFVQQVADFCSYIFSNSKTKTLSGGIQVNGPRLESLVLTYVNAISSGDLPCMENAVLALAQIENSAAVQKAIAHYEQQMGQKVQLPTETLQELLDLHRDSEREAIEVFIRSSFKDVDHLFQKELAAQLEKKRDDFCKQNQEASSDRCSALLQVIFSPLEEEVKAGIYSKPGGYRLFVQKLQDLKKKYYEEPRKGIQAEEILQTYLKSKESMTDAILQTDQTLTEKEKEIEVERVKAESAQASAKMLQEMQRKNEQMMEQKERSYQEHLKQLTEKMENDRVQLLKEQERTLALKLQEQEQLLKEGFQKESRIMKNEIQDLQTKMRRRKACTIS
modifications: farnesyl moiety at the C-terminal CaaX box motif
notes: as for B4
Regarding B5, in data set [1], the binding result is listed as “binds”.
